B1: 14-3-3β (purified alone) (natural protein)
chain: MTMDKSELVQKAKLAEQAERYDDMAAAMKAVTEQGHELSNEERNLLSVAYKNVVGARRSSWRVISSIEQKTERNEKKQQMGKEYREKIEAELQDICNDVLELLDKYLIPNATQPESKVFYLKMKGDYFRYLSEVASGDNKQTTVSNSQQAYQEAFEISKKEMQPTHPIRLGLALNFSVFYYEILNSPEKACSLAKTAFDEAIAELDTLNEESYKDSTLIMQLLRDNLTLWTSENQGDEG
B2: GFP-ExoS^233–419 (domain or fragment)
chain: ADKALADGLVKRFGADAEKYLGRQPGGIHSDAEVMALGLYTGIHYADLNRALRQGQELDAGQKLIDQGMSAAFEKSGQAEQVVKTFRGTRGGDAFNAVEEGKVGHDDGYLSTSLNPGVARSFGQGTISTVFGRSGIDVSGISNYKNEKEILYNKETDMRVLLSASDEQGVTRRVLEEAALGEQSGHS

Tests used:
[1] = molecular target: GFP-ExoS^419-453; assay: FP
[2] = molecular target: B1; assay: FP

Binder | Kd [1] | Kd [2]
B1 | ~370 nM | –
B2 | – | > 100 nM

From publication PMC6141617 (2018)
